Sequences and labels used below:
B1: Ubiquitin domain-containing protein 2 (Homo sapiens), Q8WUN7 (parent)
chain: MGGCVGAQHDSSGSLNENSEGTGVALGRNQPLKKEKPKWKSDYPMTDGQLRSKRDEFWDTAPAFEGRKEIWDALKAAAHAFESNDHELAQAIIDGANITLPHGALTECYDELGNRYQLPVYCLAPPINMIEEKSDIETLDIPEPPPNSGYECQLRLRLSTGKDLKLVVRSTDTVFHMKRRLHAAEGVEPGSQRWFFSGRPLTDKMKFEELKIPKDYVVQVIVSQPVQNPTPVEN
partner: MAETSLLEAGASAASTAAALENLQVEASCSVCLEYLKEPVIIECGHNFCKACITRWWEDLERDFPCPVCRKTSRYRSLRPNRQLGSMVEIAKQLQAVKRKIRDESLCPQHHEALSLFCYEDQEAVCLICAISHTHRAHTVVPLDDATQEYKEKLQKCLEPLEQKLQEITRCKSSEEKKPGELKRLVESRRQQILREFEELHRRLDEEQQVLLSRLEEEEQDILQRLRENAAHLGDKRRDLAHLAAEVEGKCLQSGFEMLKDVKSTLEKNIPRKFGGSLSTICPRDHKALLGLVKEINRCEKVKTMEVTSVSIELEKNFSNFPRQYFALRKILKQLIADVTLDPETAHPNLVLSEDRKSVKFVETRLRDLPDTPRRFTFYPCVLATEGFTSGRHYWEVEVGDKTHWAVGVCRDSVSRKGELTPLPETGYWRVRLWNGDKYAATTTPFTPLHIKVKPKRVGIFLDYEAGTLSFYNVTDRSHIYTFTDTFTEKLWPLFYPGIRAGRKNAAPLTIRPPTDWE
B2: E3 ubiquitin-protein ligase LNX (Homo sapiens), Q8TBB1 (parent)
chain: MNQPESANDPEPLCAVCGQAHSLEENHFYSYPEEVDDDLICHICLQALLDPLDTPCGHTYCTLCLTNFLVEKDFCPMDRKPLVLQHCKKSSILVNKLLNKLLVTCPFREHCTQVLQRCDLEHHFQTSCKGASHYGLTKDRKRRSQDGCPDGCASLTATAPSPEVSAAATISLMTDEPGLDNPAYVSSAEDGQPAISPVDSGRSNRTRARPFERSTIRSRSFKKINRALSVLRRTKSGSAVANHADQGRENSENTTAPEVFPRLYHLIPDGEITSIKINRVDPSESLSIRLVGGSETPLVHIIIQHIYRDGVIARDGRLLPGDIILKVNGMDISNVPHNYAVRLLRQPCQVLWLTVMREQKFRSRNNGQAPDAYRPRDDSFHVILNKSSPEEQLGIKLVRKVDEPGVFIFNVLDGGVAYRHGQLEENDRVLAINGHDLRYGSPESAAHLIQASERRVHLVVSRQVRQRSPDIFQEAGWNSNGSWSPGPGERSNTPKPLHPTITCHEKVVNIQKDPGESLGMTVAGGASHREWDLPIYVISVEPGGVISRDGRIKTGDILLNVDGVELTEVSRSEAVALLKRTSSSIVLKALEVKEYEPQEDCSSPAALDSNHNMAPPSDWSPSWVMWLELPRCLYNCKDIVLRRNTAGSLGFCIVGGYEEYNGNKPFFIKSIVEGTPAYNDGRIRCGDILLAVNGRSTSGMIHACLARLLKELKGRITLTIVSWPGTFL
partner: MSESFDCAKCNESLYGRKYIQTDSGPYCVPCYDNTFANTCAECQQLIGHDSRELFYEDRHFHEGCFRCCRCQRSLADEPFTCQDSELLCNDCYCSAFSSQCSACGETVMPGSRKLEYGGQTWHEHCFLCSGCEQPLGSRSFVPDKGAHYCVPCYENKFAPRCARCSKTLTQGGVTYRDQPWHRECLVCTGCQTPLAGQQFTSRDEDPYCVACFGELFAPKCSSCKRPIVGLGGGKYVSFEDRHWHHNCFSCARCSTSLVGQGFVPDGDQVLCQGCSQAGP
B3: E3 ubiquitin-protein ligase LNX (Homo sapiens), Q8TBB1 (parent)
chain: B2 chain
partner: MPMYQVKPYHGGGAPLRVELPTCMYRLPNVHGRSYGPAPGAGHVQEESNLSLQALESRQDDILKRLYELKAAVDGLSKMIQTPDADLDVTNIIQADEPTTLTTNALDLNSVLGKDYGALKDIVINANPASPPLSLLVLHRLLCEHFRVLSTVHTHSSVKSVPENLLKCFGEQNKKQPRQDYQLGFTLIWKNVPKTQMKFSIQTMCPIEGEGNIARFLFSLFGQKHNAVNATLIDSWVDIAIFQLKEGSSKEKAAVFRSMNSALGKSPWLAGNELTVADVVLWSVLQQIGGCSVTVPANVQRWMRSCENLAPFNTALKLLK
B4: Coiled-coil domain-containing protein 158 (Homo sapiens), Q5M9N0 (parent)
chain: MESKAWESNNEDLLSSSGVTSNGGSSSSFFVSSIRGTIIENTSSAGTLTQVPFFPKYEVELDSPRKIIPSPGKEHFERVLEEYSHQVKDLQRRLNESNELHEKQKFYLRQSVIDLQTKLQEMQMERDAMADIRRRESQSQEDLRNQLQNTVHELEAAKCLKEDMLKDSNTQIEQLRKMMLSHEGVLQEIRSILVDFEEASGKKICEHDSMSTLHFRSLGSAISKILRELDTEISYLKGRIFPVEDQLEALKSESQNKIELLLQQHQDRIEQLISEHEVEITGLTEKASSARSQANSIQSQMEIIQEQARNQNSMYMRQLSDLESTVSQLRSELREAKRMYEDKTEELEKQLVLANSELTEARTERDQFSQESGNLDDQLQKLLADLHKREKELSLEKEQNKRLWDRDTGNSITIDHLRRELDNRNMEVQRLEALLKALKSECQGQMERQMAAIQGKNESLEKVSSLTAQLESTKEMLRKVVEELTAKKMTLESSERTISDLTTSLQEKERAIEATNAEITKLRSRVDLKLQELQHLKNEGDHLRNVQTECEALKLQMTEKDKVIEILRQQIENMTQLVGQHGRTAGAMQVEKAQLEKEINDRRMELKELKILKDKKDAKIRELEARVSDLELEKVKLVNAGSERLRAVKDIKQERDQLLNEVKTSRSELNNLSEEYEVLKRNFRNKSEEMEMTTNKLKMQLKSAQSELEQTRNTLKSMEGSDGHAMKVAMGMQKQITAKRGQIDALQSKIQFLEEAMTNANKEKHFLKEEKSKLSQELSTVATEKNKMAGELEVLRSQERRLKEKVTNMEVALDKASLQFAECQDIIQRQEQESVRLKLQHTLDIKELQGPGYTSNSSLKPRLLQPASVTRSHSNVPSSQSTASFLSHHSTKANTLKEDPTRDLKQLLQELRSVINEEPAVSLSKTEEDGRTSLGALEDRVRDCITESSLRSDMCHRSNNSLRDSTEGSKSSETLSREPVTLHAGDREDPSGCFTFTSAASPSVKNSASRSFNSSPKKSPVHSLLTSSVEGSIGSTSQYRSAKPIHSSDSVKDSQSPPIETTGKTCRKLQNRLESLQTLVEDLQLKNQAMSSMIRNQEKRIQKVKDQEKMLLK
partner: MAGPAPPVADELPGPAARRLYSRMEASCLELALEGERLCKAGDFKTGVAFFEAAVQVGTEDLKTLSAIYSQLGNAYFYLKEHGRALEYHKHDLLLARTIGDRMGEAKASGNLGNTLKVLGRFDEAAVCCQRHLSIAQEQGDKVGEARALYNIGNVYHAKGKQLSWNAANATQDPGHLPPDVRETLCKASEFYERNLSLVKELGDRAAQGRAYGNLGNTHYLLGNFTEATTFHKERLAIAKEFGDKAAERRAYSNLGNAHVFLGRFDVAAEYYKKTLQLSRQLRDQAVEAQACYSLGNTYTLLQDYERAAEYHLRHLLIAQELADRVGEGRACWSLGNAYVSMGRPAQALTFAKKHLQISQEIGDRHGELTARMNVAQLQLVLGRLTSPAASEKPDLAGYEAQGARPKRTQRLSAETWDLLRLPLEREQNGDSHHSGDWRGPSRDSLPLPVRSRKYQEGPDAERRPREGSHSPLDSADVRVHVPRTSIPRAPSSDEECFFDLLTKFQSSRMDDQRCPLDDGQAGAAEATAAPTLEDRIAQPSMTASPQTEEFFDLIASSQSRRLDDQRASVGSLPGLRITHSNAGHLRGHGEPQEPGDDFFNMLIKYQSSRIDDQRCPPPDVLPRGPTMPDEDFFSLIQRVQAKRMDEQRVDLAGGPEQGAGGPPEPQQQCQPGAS

The first test covers variants of B1. Particulars: with tri39_human TRIM39, Q9HCM9.
Take MGGCVGAQHDSSGSLNENSEGTGVALGRNQPLKKEKPKWKSDYPMTDGQLRSKRDEFWDTAPAFEGRKEIWDALKAAAHAFESNDHELAQAIIDGANITLPHGALTECYDELGNRYQLPVYCLAPPINMIEEKSDIETLDIPEPPPNSGYECQLRLRLSTGKDLKLVVRSTDTVFHMKRWLHAAEGVEPGSQRWFFSGRPLTDKMKFEELKIPKDYVVQVIVSQPVQNPTPVEN [R180W]: the “effect of a mutation on the interaction” value was “with no effect”.

The variants in another test derive from B2. Particulars: with fhl3_human FHL3, Q13643.
For the variant E295K, the “effect of a mutation on the interaction” value is “disrupting interaction strength”.

Variants of B3 are the subject of a further test. Particulars: with aimp2_human AIMP2, Q13155.
Consider E295K, for which the “effect of a mutation on the interaction” value is on record as “disrupting interaction strength”.

Variants of B4 are the subject of the next test. The following applies: with gpsm1_human GPSM1, Q86YR5.
For the variant R78H, the “effect of a mutation on the interaction” value is “with no effect”.

The values are drawn from IntAct's records for PubMed 29892012.
